B1: mouse C4G1 antibody (antibody, V domains shown)
VH: QVQLQQSGAELVGPGTSVRVSCKASGYAFTNYLIEWVKQRPGQGLEWIGVIYPGSGGTNYNEKFKGKATLTVDKSSTTAYMQLSSLTSDDSAVYFCARRDGNYGWFAYWGRGTLVTVSA
VL: DIQMTQTTSSLSASLGDRVTISCRASQDINNYLNWYQQKPDGIVKLLIYYTSTLHSGVPSRFSGSGSGTDYSLTISNLEQEDIATYFCQQGNTLPWTFGGGTKLEIK
B2: mouse C4G1 Fab fragment (Fab, V domains shown)
VH: B1 VH
VL: B1 VL
B3: mouse C4G1 F(ab')2 fragment (other)
VH: B1 VH
VL: B1 VL
B4: humanized C4G1 antibody (antibody, V domains shown)
VH: QVQLVQSGAEVKKPGSSVKVSCKASGYAFTNYLIEWVRQAPGQGLEWIGVIYPGSGGTNYNEKFKGRVTLTVDESTNTAYMELSSLRSEDTAVYFCARRDGNYGWFAYWGQGTLVTVSS
VL: DIQMTQTPSTLSASVGDRVTISCRASQDINNYLNWYQQKPGKAPKLLIYYTSTLHSGVPSRFSGSGSGTDYTLTISSLQPDDFATYFCQQGNTLPWTFGQGTKVEVKR

The text below walks through data of patent US5777085, “Humanized antibodies reactive with GPIIB/IIIA” (Protein Design Labs, Inc., dated 1998).

Where only a bound is given, the exact number is not on record here.

The target of the assay is GPIIb/IIIa (human, UniProt P08514). In words: competitive binding on HEL 92.1.7 cells, radioiodinated mouse C4G1 as tracer. As to the method: The affinities of the humanized C4G1 antibody, Fab fragment and F(ab')_2-1 fragment were determined by competitive binding with the respective mouse C4G1 antibody and fragments. Purified human platelets were used as source of the GPIIb/IIIa antigen. The platelets were purified from buffy coats from normal human donors by centrifugation on ficoll-hypaque. Increasing amounts of humanized or mouse competitor antibody or fragment was added to 4.5 ng of radioiodinated tracer C4G1 antibody (3.5 µCi/ug) and incubated with 3×10^7 platelets in 0.2 ml of modified Tyrode's buffer for 1 hr. at room temperature. Cells were washed with 2 ml of ice-cold buffer and pelleted. The radioactivities were measured, and the concentrations of bound and free tracer antibody were calculated (FIG. 8). The binding affinities of the various antibodies and fragments were calculated as in Queen et al., Proc. Nat. Acad. Sci. USA 86, 10029 (1989). […] The same result was obtained when competitive binding was performed with HEL 92.1.7 cells as source of GPIIb/IIIa antigen. Moreover all the actual binding affinities to these cells were about 10^8 M^-1 or higher.
In the case of B1, the Ka is ≥ 1e+08 M⁻¹. On to B2, for which the Ka is ≥ 1e+08 M⁻¹. On to B3, for which the Ka is ≥ 1e+08 M⁻¹. Regarding B4, the Ka was > 1e+08 M⁻¹.
